Results from the supplement of paper PMC10567573.

B1: LOC100129726 (parent)
chain: AKAADSPTRNDLESGLGHFSLRVH

Variants of: B1
Assay: protein stability index of a GFP-peptide fusion (GPS, HEK-293T) (PSI 1-6); higher = more stable
Details: c terminus: a fixed tail appended
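Note: lentivirally expressed fusions sorted by FACS into six bins by GFP to DsRed ratio, PSI derived from sequencing read proportions per bin multiplied by bin number.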

| Variant | protein stability index |
| --- | --- |
| AKAADSPPRNDLESGLGHFSLRVH | 3.38 |
| AKAADSPARNDLESGLGHFSLRVH | 2.95 |
| AKAADSPFRNDLESGLGHFSLRVH | 2.35 |
| AKAADSPLRNDLESGLGHFSLRVH | 2.13 |
| AKAADSPTRNDLESGEGHFSLRVH | 4.23 |
| AKAADSPTRNDLESGQGHFSLRVH | 3.28 |
| AKAADSPTRNDLESGYGHFSLRVH | 2.84 |
| AKAADSPTRNDLESGTGHFSLRVH | 3.8 |
| AKAADSPTRNDLESGIGHFSLRVH | 3.71 |
| AKAADSPTRNDLESGWGHFSLRVH | 2.74 |
| AKAADSPTRNDLESGLGHFDLRVH | 3.46 |
| AKAADSPTRNDLESGLGHFILRVH | 1.48 |
| AKAADSPTRNDLESGLGHFALRVH | 3.29 |
| AKAADSPTRNDLEMGLGHFSLRVH | 2.5 |
| AKAADSPTRNDLENGLGHFSLRVH | 3.68 |
| AKAADSPTRNDLEVGLGHFSLRVH | 2.63 |
| AKAADSPTRNDLEDGLGHFSLRVH | 3.85 |
| AKAADSPTRNDLESGLGHFSLRVT | 3.41 |
| AKAADSPTRNDLESGLGHFSLRVD | 3.63 |
| AKAADSPTRNDLESGLGHFSLRVP | 3.73 |
| AKAADSPTRNDLESGLGHFSLRVK | 3.92 |
| AKAADSPTRNDLESGLGHFSLRVA | 2.92 |
| AKAADSPTRNDLESGLGHFSVRVH | 3.84 |
| AKAADSPTRNDLESGLGHFSRRVH | 2.98 |

| Variant | protein stability index |
| --- | --- |
| AKAADSPTRNDLESGLGHFSSRVH | 4.39 |
| AKAADSPTRNDLESGLGHFSNRVH | 4.3 |
| AMAADSPTRNDLESGLGHFSLRVH | 2.78 |
| ARAADSPTRNDLESGLGHFSLRVH | 3.38 |
| AKAADSPTRNDLESCLGHFSLRVH | 2.18 |
| AKAADSPTRNDLESFLGHFSLRVH | 1.74 |
| AKAADSPTRNDLESSLGHFSLRVH | 2.86 |
| AKAADSPTRNDLESPLGHFSLRVH | 2.79 |
| AKAADSPTRNDLESWLGHFSLRVH | 1.57 |
| AKAADSPTRNDLESGLGQFSLRVH | 3.44 |
| AKAADSPTRNDLESGLGEFSLRVH | 3.45 |
| AKAADSPTRNDLESGLGSFSLRVH | 3.73 |
| AKAADSPTRNDLESGLLHFSLRVH | 1.65 |
| AKAADSPTRNDLESGLPHFSLRVH | 3.06 |
| AKAADSPTRNDLESGLMHFSLRVH | 2.27 |
| AKAADSPTRNDLESGLVHFSLRVH | 3.13 |
| AKAADSPTRNDLESGLEHFSLRVH | 3.58 |
| AKAADRPTRNDLESGLGHFSLRVH | 3.08 |
| AKAADCPTRNDLESGLGHFSLRVH | 2.71 |
| AKAADIPTRNDLESGLGHFSLRVH | 2.53 |
| AKAADSPTRNDLESGLGHSSLRVH | 4.61 |
| AKAADSPTRNDLESGLGHHSLRVH | 3.67 |
| AKAADSPTRNDLESGLGHWSLRVH | 2.76 |
| AKAADSPTRNDLESGLGHFSLYVH | 2.31 |

| Variant | protein stability index |
| --- | --- |
| AKAADSPTRNDLESGLGHFSLTVH | 2.8 |
| AKAADSPTRNDLESGLGHFSLLVH | 2.7 |
| AKAADSPTRNDLESGLGHFSLMVH | 2.61 |
| AKAADSPTRNDLESGLGHFSLIVH | 2.61 |
| AKAADSPTRNDLESGLGHFSLAVH | 3.47 |
| AKAADSNTRNDLESGLGHFSLRVH | 3.27 |
| AKAADSVTRNDLESGLGHFSLRVH | 2.7 |
| AKAADSCTRNDLESGLGHFSLRVH | 2.16 |
| AKPADSPTRNDLESGLGHFSLRVH | 3.04 |
| AKRADSPTRNDLESGLGHFSLRVH | 3.58 |
| AKSADSPTRNDLESGLGHFSLRVH | 3.49 |
| AKAADSPTRNDLESGLGHFSLRSH | 3.48 |
| AKAADSPTRNDLESGLGHFSLRPH | 4.13 |
| AKAADSPTRNDLESGLGHFSLREH | 4.69 |
| AKAADSPTRNDLESGLGHFSLRGH | 4.16 |
| AKAADSPTRNDLESGLGHFSLRDH | 4.68 |
| AKAADSPTRNDVESGLGHFSLRVH | 3.62 |
| AKAADSPTRNDRESGLGHFSLRVH | 3.76 |
| AKAADSPTRNDWESGLGHFSLRVH | 2.6 |
| AKAADSPTRNDPESGLGHFSLRVH | 3.51 |
| AKAADSPTRNDEESGLGHFSLRVH | 4 |
| AKAAHSPTRNDLESGLGHFSLRVH | 2.63 |
| AKAAISPTRNDLESGLGHFSLRVH | 2.65 |
| AKAAWSPTRNDLESGLGHFSLRVH | 2.14 |

| Variant | protein stability index |
| --- | --- |
| AKAWDSPTRNDLESGLGHFSLRVH | 2.16 |
| AKAGDSPTRNDLESGLGHFSLRVH | 2.86 |
| AKAADSPTWNDLESGLGHFSLRVH | 1.86 |
| AKAADSPTHNDLESGLGHFSLRVH | 3.56 |
| AKAADSPTGNDLESGLGHFSLRVH | 3.84 |
| AKAADSPTFNDLESGLGHFSLRVH | 2.4 |
| AKAADSPTCNDLESGLGHFSLRVH | 3.04 |
| AKAADSPTINDLESGLGHFSLRVH | 2.37 |
| AKAADSPTRNVLESGLGHFSLRVH | 2.21 |
| AKAADSPTRNMLESGLGHFSLRVH | 2.19 |
| AKAADSPTRNSLESGLGHFSLRVH | 2.64 |
| AKAADSPTRNDLVSGLGHFSLRVH | 2.52 |
| AKAADSPTRNDLMSGLGHFSLRVH | 2.15 |
| AKAADSPTRNDLKSGLGHFSLRVH | 2.08 |
| AKAADSPTRNDLHSGLGHFSLRVH | 2.74 |
| AKAADSPTRNDLGSGLGHFSLRVH | 2.02 |
| AKAADSPTRDDLESGLGHFSLRVH | 3.61 |
| AKAADSPTRIDLESGLGHFSLRVH | 1.78 |
| AKAADSPTRPDLESGLGHFSLRVH | 4 |
| DKAADSPTRNDLESGLGHFSLRVH | 3.88 |
| NKAADSPTRNDLESGLGHFSLRVH | 3.25 |
| CKAADSPTRNDLESGLGHFSLRVH | 2.1 |
